Consider one molecule from WO2018135651A1 (dated 2018).

This experiment has as its target T1, Human survivin (1-142 aa, N-terminal calmodulin tag, recombinant, #SUR0801, ATGen Co., Ltd.) (human, UniProt O15392 1-142).
T1 construct: range 1-142; Bought recombinant protein, used in solution at 100, 10 and 1 ng/mL; also called antigen; not shown: N-terminal calmodulin tag of the bought product
The experiment is described as follows: sandwich ELISA; VHH-STM complex adsorbed to the plate as capture, survivin in solution, detection with rabbit anti-survivin polyclonal antibody. For orientation: An ELISA detects its analyte on a solid surface through an enzyme-linked reagent.

T1 sequence (O15392 whole entry, the tested form may be a part): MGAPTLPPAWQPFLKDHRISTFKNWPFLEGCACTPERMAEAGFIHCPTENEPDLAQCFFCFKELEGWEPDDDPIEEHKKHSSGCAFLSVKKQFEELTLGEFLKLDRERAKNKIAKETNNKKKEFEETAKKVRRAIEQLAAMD

B1: VHH-STM complex (antibody complex consisting of an anti-human survivin VHH antibody and a stefin A mutant) (VHH)
VHH: EVQLVESGGGSVQAGGSLRLSCAASGVSNTDMIMIWFRQAPGKEREGVLAAIYKNSTYYADSVKGRFTISQDNAKNTVYLQMNSLKPEDTAIYYCAAIRAVIGRHIRPHIYWGQGTQVTVSS
notes: Single-chain fusion: anti-human survivin VHH, linker, stefin A mutant (STM), His tag, C-terminal Cys; Secreted from Brevibacillus choshinensis and Ni-NTA purified; Adsorbed directly to the plate as capture reagent; also called VHH-STM conjugate; VHH antibody-STM conjugate
For the molecule B1, the binding result is listed as “binds”.
